Measured values published in CN109232738A (GENSCRIPT NANJING CO LTD, dated 2019).
Where a chain is given by its changes, count along the chain named.

T1: 人OX40 expressed on cells (表达OX40的CHO细胞; OX40过表达的功能细胞系) (human, UniProt P43489 29-277)
T1 construct: whole, on cells; also called CD134; TNFRSF4
T1 sequence (looked up): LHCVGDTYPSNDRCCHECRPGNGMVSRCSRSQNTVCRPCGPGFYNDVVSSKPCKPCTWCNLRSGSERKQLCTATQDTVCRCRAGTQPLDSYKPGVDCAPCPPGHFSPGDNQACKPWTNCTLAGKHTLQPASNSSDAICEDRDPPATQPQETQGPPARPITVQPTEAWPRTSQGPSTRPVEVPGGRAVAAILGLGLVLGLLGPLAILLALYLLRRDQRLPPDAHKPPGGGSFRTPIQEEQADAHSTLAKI

B1: 51E2G12D6 (antibody, V domains shown)
VH: QVTLKESGPGILQPSQTLSLTCSFSGFSLDTSGMGVTWIRQPSGKGLEWLAHIYWDDDKHYNPSLKSRLTISKDTSSTQVLLKITSVVTADTATYYCARRALGAMDYWGQGTSVTVSS
VL: DIQMTQTTSSLSASLGDRVTISCRASQDISHYLNWYQQKPDGTVKLLIYYTSTLHSGVPSRFSGSGSGTDYSLTISNLEQEDIATYFCQQGKTLPPTFGAGTELELK
B2: 83C2H3B6 (antibody, V domains shown)
VH: QVQLKQSGPGLVQPSQSLSITCTVSGFSLTSYGVHWVRQSPGKGLEWLGVIWSGGSTDYNAAYISRLSISKDNSKSQVFFKMNSLQADDTATYYCANYDYDVPYWGQGTLVTVSA
VL: DIQMTQSPASQSASLGESVTITCLASQTIGTWLAWYQQKPGKSPQLLIYAATSLADGVPSRFSGSGSGTKFSFKISSLQAEDFVSYYCQQLYSTPFTFGSGTKLEIK
B3: 68G8C4B12 (antibody, V domains shown)
VH: QVQLKESGPGLVAPSQSLSITCTVSGFSLTNYGVHWVRQPPGKGLEWLGVIWDDGNTNYNSALMSRLSINKDNSKSQVFVTMNSLQIDDTAMYYCALFDGYYGWFAYWGQGTLVTVSS
VL: B1 VL with H31F, T53R, I83F, K92H, P96W, A100G, T102S, E103K, L106I
B4: 9G4C8B11 (antibody, V domains shown)
VH: DVQLQESGPGLVKPSQSLSLTCSVTGYSITSGYYWNWIRQFPGNKLEWMGYISYDGSNNYNPSLKNRISITRDTSKNQFFLKLNSVTTEDTATYYCARDRAYYSNYVGWYFDVWGTGTTVTVSS
VL: DIVLTQSPASLAVSLGQRATISCRASESVDNYGNSFMHWYQQTPGQPPKLLIYRASNLESGIPAKFSGSGSRTDFTLTINPVEADDVATYYCQQSNEDPLTFGAGTKLELK
B5: 99A2A8D4E8 (antibody, V domains shown)
VH: QIQLVQSGPELKKPGETVKISCKASGYTFTDYSMHWVKQAPGKGLKWMGWISTETGEPTYADDFKGRFAFSLETSASTAYLQIKNLKNEDTASYFCARVRPWYLAVWGAGTTVTVSS
VL: B1 VL with H31N, T53R, H55Y, T69A, I75V, G91A, K92N, P96L, E103K
B6: 17B12G2C3 (antibody, V domains shown)
VH: EVQLQQSGPELVKPGASVKISCKASGYTFTDYYMNWVKQSHGKSLEWIGDINPNNGGTNYNQKFKGKATLTVDKSSSTTYMELRSLTSEDSAVYYCARSGGWLLQDYWGQGTTLTVSS
VL: B1 VL with S22T, Q27L, H31N, L46F, T53R, K92N, P96Y, A100G, E103K, L106I
B7: OX40L (ligand, UniProt P23510 51-183, looked up)
chain: QVSHRYPRIQSIKVQFTEYKKEKGFILTSQKEDEIMKVQNNSVIINCDGFYLISLKGYFSQEVNISLHYQKDEEPLFQLKKVRSVNSLMVASLTYKDKVYLNVTTDNTSLDDFHVNGGELILIHQNPGEFCVL

These binders were tested against T1, 人OX40 expressed on cells (表达OX40的CHO细胞; …) (assay: flow cytometry on OX40-expressing CHO cells, 5 μg/ml antibody).

Binder	结合信号值 relative to control sample (fold)
B1	200
B2	200
B3	200
B4	200
B5	200
B6	200

What follows are binders tested against T1, 人OX40 expressed on cells (表达OX40的CHO细胞; …) (assay: cell-based or functional assay).

Binder	IL-8 secretion by OX40 over-expressing functional cell line (activation), EC50 [nM]	inhibition of IL-8 secretion by OX40 over-expressing functional cell line, IC50 [nM]	inhibition of IL-8 secretion by OX40 over-expressing functional cell line, given as EC50 [nM]
B7	2.18	–	–
B1	–	1.45	–
B2	–	68	–
B3	–	–	2.36
B4	6.5	–	–
B5	0.58	–	–
B6	–	8.23	–
